Laboratory results from patent publication US20240043534A1.

Tests used:
[1] = target: Fab^H(Her2)-linker-GA1 fusion (13 residue linker); assay: cell-based or functional assay
[2] = target: FabHS (human 4D5 scaffold with residues PEELRTNK replacing amino acids corresponding to 15-22 of SEQ ID NO:1); assay: protein ELISA
[3] = target: “Λ” Fab scaffold (4D5 scaffold with SEELQANK in the Lc region); assay: SPR (preliminary results), Protein G variant against Fab scaffold
[4] = target: Fab^H (Herceptin Fab scaffold with wt human kappa Lc; Lc aa 123-127 EQLKS); assay: as above
[5] = target: yeast histone chaperone protein Asf1 (Anti-silencing factor 1) (yeast) (UniProt P32447); assay: cell-based or functional assay
Chain of yeast histone chaperone protein Asf1 (Anti-silencing factor 1) (yeast) (P32447 1-158 limits assumed): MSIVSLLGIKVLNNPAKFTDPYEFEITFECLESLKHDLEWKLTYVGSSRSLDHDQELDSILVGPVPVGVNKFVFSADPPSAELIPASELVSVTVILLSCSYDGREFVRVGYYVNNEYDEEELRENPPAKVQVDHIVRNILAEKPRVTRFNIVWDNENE

[6] = target: N-terminal methyltransferase domain of the Zika virus bifunctional NS5 enzyme (MT ZIKV) (Zika virus); assay: cell-based or functional assay
[7] = target: N-terminal methyltransferase domain of the Zika virus bifunctional NS5 enzyme (MT ZIKV) (Zika virus); assay: SPR, Fab as analyte on His-tag-immobilized antigen
[8] = target: Fab with CK (kappa) light chain constant domain; assay: ELISA

Chain of FabHS (human 4D5 scaffold with residues PEELRTNK replacing amino acids corresponding to 15-22 of SEQ ID NO:1) (light, as listed by the source): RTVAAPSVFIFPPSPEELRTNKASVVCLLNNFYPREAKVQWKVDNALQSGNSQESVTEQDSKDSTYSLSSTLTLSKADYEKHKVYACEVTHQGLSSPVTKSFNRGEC
Chain of “Λ” Fab scaffold (4D5 scaffold with SEELQANK in the Lc region) (light, as listed by the source): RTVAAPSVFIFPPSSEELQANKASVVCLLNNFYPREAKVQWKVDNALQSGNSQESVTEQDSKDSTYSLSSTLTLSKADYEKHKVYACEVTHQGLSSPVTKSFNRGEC

B1: hOKT3(S)_LRT (Fab, V domains shown)
VH: EVQLVESGGGLVQPGGSLRLSCAASGYTFTRYTMHWVRQAPGKGLEWIGYINPSRGYTNYNQKFKDKATISTDKSKNTAYLQMNSLRAEDTAVYYCARYYDDHYSLDYWGQGTLVTVSS
VL: DIQMTQSPSSLSASVGDRVTITCSASSSVSYMNWYQQKPGKAPKRWIYDTSKLASGVPSRFSGSGSGTDYTLTISSLQPEDFATYYCQQWSSNPFTFGQGTKVEIKR
redirected tumor-cell killing (LDH release), PBMC-SKBR3 co-cultures, bi-Fab at 50 nM [1]: < 70%

B2: Protein-G-HS C6 (designed binder)
chain: MKGETTTEAVDAATAEKVFKQYANDNGVDGEWTYDDATKTFTVTEKPEVIDASELTPAVTTYKLVINGKTLKGETTTEAVDAATAEKVFKQYANDNGVDGEWTYDDATKTFTVTEKPEVIDASELTPAVTTYKLVINGRTLSGETTTKAVDAETAEKAFKQYSRPHVVDGVWTYDDATKTFTVTE
IC50 [2]: 8 nM

B3: Protein-G-HS C7 (designed binder)
chain: MKGETTTEAVDAATAEKVFKQYANDNGVDGEWTYDDATKTFTVTEKPEVIDASELTPAVTTYKLVINGKTLKGETTTEAVDAATAEKVFKQYANDNGVDGEWTYDDATKTFTVTEKPEVIDASELTPAVTTYKLVINGRTLSGETTTKAVDAETAEKAFKQYAYGAVVDGVWTYDDATKTFTVTE
IC50 [2]: 100 nM

B4: Protein G D (designed binder)
chain: TPAVTTYKLVINGRTLSGYTTTTAVDAATAEKVFKQIDMVSSVDGEWTYDDATKTFTVTEKPEKL
Kd [3]: 50 nM | Kd [4]: 15 nM

B5: E11 Asf1 LRT-Fab (Fab, V domains shown)
VH: EVQLVESGGGLVQPGGSLRLSCAASGFNISYSSIHWVRQAPGKGLEWVASISSYYGSTYYADSVKGRFTISADTSKNTAYLQMNSLRAEDTAVYYCARSRGQASWDYWGQGTLVTVSS
VL: DIQMTQSPSSLSASVGDRVTITCRASQSVSSAVAWYQQKPGKAPKLLIYSASSLYSGVPSRFSGSRSGTDFTLTISSLQPEDFATYYCQQSSDDPITFGQGTKVEIKR
β-lactamase (BL) split-enzyme complementation, fluorescent signal [5]: < 10 fold

B6: Z2C4 ZIKV LRT-Fab (Fab, V domains shown)
VH: EVQLVESGGGLVQPGGSLRLSCAASGFNVYYSSIHWVRQAPGKGLEWVAYIYPSSGSTYYADSVKGRFTISADTSKNTAYLQMNSLRAEDTAVYYCARSWSPYGMDYWGQGTLVTVSS
VL: DIQMTQSPSSLSASVGDRVTITCRASQSVSSAVAWYQQKPGKAPKLLIYSASSLYSGVPSRFSGSRSGTDFTLTISSLQPEDFATYYCQQWYDSLITFGQGTKVEIKR
β-lactamase (BL) split-enzyme complementation, limit of antigen detection [6]: 30 nM | Kd [7]: 0.7 nM

B7: Z2G6 ZIKV LRT-Fab (Fab, V domains shown)
VH: EVQLVESGGGLVQPGGSLRLSCAASGFNVYYYYIHWVRQAPGKGLEWVASIYSYSGYTYYADSVKGRFTISADTSKNTAYLQMNSLRAEDTAVYYCAREGVWWEDEFYPGLDYWGQGTLVTVSS
VL: DIQMTQSPSSLSASVGDRVTITCRASQSVSSAVAWYQQKPGKAPKLLIYSASSLYSGVPSRFSGSRSGTDFTLTISSLQPEDFATYYCQQSWSSLFTFGQGTKVEIKR
β-lactamase (BL) split-enzyme complementation, limit of antigen detection [6]: 30 nM | Kd [7]: 1.7 nM | koff [7]: 9.2e-05 s⁻¹

B8: Protein-G-A1 (SEQ ID NO:27) (designed binder)
chain: MKGETTTEAVDAATAEKVFKQYANDNGVDGEWTYDDATKTFTVTEKPEVIDASELTPAVTTYKLVINGRTLSGYTTTTAVDAATAEKVFKQYAYVHEVDGEWTYDDATKTFTVTEKPEVIDASELTPAVTTYKLVINGRTLSGETTTKAVDAETAEKAFKQYANDNGVDGVWTYDDATKTFTVTE
EC50 ratio (preference for CK over Cλ) [8]: > 5000
